This experiment deals with Vibrio cholerae chromosome 2 ParA (ParA2vc) (Vibrio cholerae). Briefly: negative-stain EM; ParA2vc 1 mg/ml with or without 3.5 mM nucleotide and MgCl2, 30 °C 15 min, diluted 1/100 in 100 mM NaCl, 50 mM Tris pH 7.5; no DNA; 2D classification of particles; monomers to dimer.

In turn, “Vibrio cholerae chromosome 2 ParA (ParA2vc)” yielded a stoichiometry N of 2.

A word on the stoichiometry N: it is the number of molecules, sites or subunits per partner or assembly.

For the origin of these results see article PMC8397727, “The structure of the bacterial DNA segregation ATPase filament reveals the conformational plasticity of ParA upon DNA binding” (Nature Communications, 2021).
